This data set is described as follows: soluble on expression in E. coli; label from the status in PepcDB or PDB records.
Turning to “MSLLSRSVKRELVGKSAQMEQIRSHVAQYALLNRHVVIVGESGCGRHTIAYLIHQLTTNNGHLPWVELVASAKTEWSTVEPKVQESAGGTLLIDHIELLSEEVQRNVVQSLLNQERLNRPRTRVIAVIDQPPEQLIAQNQLLPELYYLLNQGQIDVPLLRQRPDDIAALFHYFLKQSCYKLGKPMPNVEPHYLALLRAHQWPGNVRELRNVAELYAIGIVKLAGKERLYNQEEMLSPLDELVDDYEKQVIEDALFLFSGRVADAANYLQVPRKKLYLRMKKHGLEKDAFKAREGHHHHHH”, the “soluble on expression in E. coli” value is on record as “not soluble”.

As to “MGHHHHHHSHMNRLPDDYDPYAVEEPSDEEPALSSSEDEVDVLLHGTPDQKRKLIRECLTGESESSSEDEFEKEMEAELNSTMKTMEDKLSSLGTGSSSGNGKVATAPTRYYDDIYFDSDSEDEDRAVQVTKKKKKKQHKIPTNDELLYDPEKDNRDQAWVDAQRRGYHGLGPQRSREQQPVPNSDAVLNCPACMTTLCLDCQRHESYKTQYRAMFVMNCSINKEEVLRYKASENRKKRRVHKKMRSNQEDAAEKAETDVEEIYHPVMCTECSTEVAVYDKDEVFHFFNVLASHS”, the “soluble on expression in E. coli” value is on record as “not soluble”. The result for “MELLRPEATVLSLGRRVLSFDREGRPYHYFREGKTYKRALDGSLHLRYREGERRRRRLAPEEALGVYQEVLDLAEAHLRDERRREEVLRWTPEGLLDPTPYRRAYAWPVSILPPDAYLSVVLQATTGCTWNRCAFCSFYQDRPFQKRTPEAFREHIQAVLALLGRGRLLRRGVFLADGNALALSEPLLPLLELVRAHFPGEPVMGFLDLFTGLKKAPSWWERLGGMGLRRVYIGLETGHAPLLALLRKPGHPKEVLPLVRALKSSGLSVGVILMVGSGGKAFAEAHFRESLALLAELPLGRGDVVYLSPFREDPGTPYAALGLAPLEDLEGELQRWAQAVRRLGLRASRYEIRE” reads “soluble”. “EEFPFALGVQTLPQTCDEPKAHTSFQISLSVSYTGSRSASNMAIVDVKMVSGFIPLKPTVKMLERSNHVSRTEVSSNHVLIYLDKVSNQTLSLFFTVLQDVPVRDLKPAIVKVYDYYETDEFAIAEYNAPCSKDLGNA”: the “soluble on expression in E. coli” value is reported as “soluble”. In the case of “MGSDKIHHHHHHMADQMQWANALSTRHSLEAAVTDVVERAVSLLTAPADLGLVFISSAFTSEYSRLLPLLAEKLSVPVLIGCSGGGVIGTTVNGEIQELEAEPAISLTLAHLPGVKVQVFHVVAEELPDLDSSPDAWVDLIGVPASPTPQFILLSSSFASGINDLLQGLDFAYPGSVIVGGQASGGGMGGRVALFCNESDGEECQSLYREGTVGIALTGNIVLETIVAQGCRPIGKPLQVTKADRNIILELDEQVPLVVLRDLIASLSEHERTLAQHSLFVGVAMDEFKLALQQGDFLIRGILGVDPTAGAIAIGDRVRPGQRLQFHLRDAQASAEDLELLLQSYQTQRESEPSAVAALMFACLGRGEGLYGKPNFDSELFRRYLSDIPVGGFFCGGEIGPVGGRTFLHAYTSAFGICRQNQL”, the “soluble on expression in E. coli” value is “not soluble”. “MAHHHHHHMSGAFGCGSYRSVVAGTQNVPRRMTFYPSAYELIQLHKAHREVIRHFYVRDKIFDNKFPGNALANGLFKFVPNRRENYHMRELMESIRRRSIWMHRIKQQREINAKVVENMEVKYGKKAAASMLCFTTPDSNAYFAPHRYQDVANSWPNYWQHPSVNHVVPKPRWRRHRELGGITRVEDPFAVQASDY”: the “soluble on expression in E. coli” value is reported as “not soluble”. The same measure for “MNRTALVLGCLLVATPALAQSVTEKTGVNSVLGIAPTTPDFVKQVAISDMFEIQSNQLAERKGNAAQQAFAKQMIADHTKTSSELKAMVSDGKVKAELPTALDSAHQSKLDKLKNANGAEFSETFDEQQVSAHKDAVSLFERYAKGGDNDALKKWAGTTLPKLQHHLEMAQQLERDRTNTTSESKAKK”: “not soluble”. For “MLTKVIEQAKIDHFTKWFERADKIVIVSHVSPDGDAIGSSLGLYHFLDSQEKTVNVIVPNAFPDFLRWMPGSKDILLYDRYKDFADKLIAEADVICCLDFNALKRIDEMADAVAASPARKVMIDHHLYPEEFCKITMSYPKISSTSELIFRLICRMGYFSDISKEGAECIYTGMMTDTGGFTYNSNNREIYFIISELLSKGIDKDDIYRKVYNTYSESRLRLMGYVLSNMVVYSDYNAALISLTKEEQSKFDYIKGDSEGFVNIPLTIKNVCFSCFLREDTEKPMIKISLRSVGTFPCNQLAAEFFNGGGHLNASGGEFFGTIEEAKAVFEQALEKYKPLLTAKSLEHHHHHH”, the “soluble on expression in E. coli” value is recorded as “soluble”.

With “MGHHHHHHSHMQQQETNLLANLTTNDARDNSKDFQNSKVGAAATSRDEGCNCPIIGEIVISCYWLFEIPPLISE”, the “soluble on expression in E. coli” value was “soluble”.

Source of the values: the DeepSol protein solubility set.
